Data on four molecules can be found in US20050048605A1 (Takeda / Millennium, published 2005).

Where no end group is shown, it is not given here. [ ]: non-standard residue; d: D form. The star is where a group is joined. Nle = CCCC[C@H](N)C(=O)O; 125I = [125I]*

Experiment [1] concerns the target T1, human-derived G protein-coupled receptor protein TGR23-2 (human TGR23-2) (human, UniProt Q6W5P4 1-371).
T1 construct: Expressed in CHO dhfr- cells (pAKKO-TGR23-2)
T1 chain: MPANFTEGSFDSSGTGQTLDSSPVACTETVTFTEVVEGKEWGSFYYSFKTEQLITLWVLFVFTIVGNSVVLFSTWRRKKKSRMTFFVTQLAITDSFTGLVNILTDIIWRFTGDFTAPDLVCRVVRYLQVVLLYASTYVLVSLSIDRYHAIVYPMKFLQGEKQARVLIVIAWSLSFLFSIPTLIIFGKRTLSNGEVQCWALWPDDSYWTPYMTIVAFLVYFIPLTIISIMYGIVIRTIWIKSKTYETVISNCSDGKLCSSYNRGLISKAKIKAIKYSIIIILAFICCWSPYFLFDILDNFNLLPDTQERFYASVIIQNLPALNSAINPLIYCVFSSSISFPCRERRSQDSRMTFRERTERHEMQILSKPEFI
The experiment in a line: competition with [Nle10,125I-Tyr15] human TGR23-2 ligand (1-20); membrane fraction of TGR23-2 expressing CHO cells at 1 ug/ml; filter assay. The procedure:
Cell membrane fraction prepared from TGR23-1 expressing CHO cells and TGR23-2 expressing CHO cells was diluted to various concentration with assay buffer (20 mM Tris-HCl, 5 mM EDTA, 0.1% BSA, 0.5 mM PMSF, 1 μg/ml Pepstatin, 4 μg/ml E-64, 20 μg/ml Leupeptin, pH7.4), and 200 μl each of the diluent was dispensed into polypropilene test tube (Falcon 2053). In order to determine an amount of maximum binding, 2 μl of DMSO and 2 μl of 10 nM [Nle¹⁰, ¹²⁵I-Tyr¹⁵] human TGR23-2 ligand (1-20) were added to the membrane fraction solution. Further, in order to determine a non-specific binding, 2 μl of 1 μM [Nle¹⁰, Tyr¹⁵] human TGR23-2 ligand (1-20)/DMSO solution was added to the membrane fraction solution. The reaction was done at 25° C. for 90 minutes, and the reaction mixture was filtered by suction filtration using Whatman glassfilter (GF-F) treated with polyethyleneimine. After filtration, a radioactivity remaining on the filter was counted using γ-counter, and an amount of specific binding was estimated by subtracting an amount of non-specific binding from an amount of maximum binding. When the concentration of membrane fraction was changed, a specific binding of [Nle¹⁰, ¹²⁵I-Tyr¹⁵] human TGR23-2 ligand (1-20) was perceived depending on the concentration of membrane fraction. An inhibition of binding activity of the test specimen to TGR23-1 receptor or TGR23-2 receptor (inhibition rate (%)) was represented by a ratio of the value to the specific binding (SB), wherein the value is calculated by subtracting the radioactivity remaining on the filter (X) in the case of adding the test sample and [Nle¹⁰, ¹²⁵I-Tyr¹⁵] human TGR3-2 ligand (1-20) from the total binding (TB) ((TB−X)/SB×100 (%)).

Experiment [2] deals with T2, rat-derived G protein-coupled receptor protein TGR23-5 (rat TGR23-5) (rat, UniProt P0C0L6 1-372).
T2 sequence: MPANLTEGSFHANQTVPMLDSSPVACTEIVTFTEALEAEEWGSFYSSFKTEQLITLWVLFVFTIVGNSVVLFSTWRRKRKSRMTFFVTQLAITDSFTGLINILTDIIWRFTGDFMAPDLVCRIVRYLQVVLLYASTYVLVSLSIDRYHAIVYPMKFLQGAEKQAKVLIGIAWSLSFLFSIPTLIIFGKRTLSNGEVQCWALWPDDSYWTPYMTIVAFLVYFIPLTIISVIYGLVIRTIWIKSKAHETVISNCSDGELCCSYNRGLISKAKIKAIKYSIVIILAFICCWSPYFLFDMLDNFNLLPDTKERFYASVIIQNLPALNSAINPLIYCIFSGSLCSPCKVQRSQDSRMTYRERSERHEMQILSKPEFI
Nature of the experiment: cell-based or functional assay.

Experiment [3] addresses T3, rat-derived G protein-coupled receptor protein TGR23-1 (rat TGR23-1) (rat, UniProt P0C0L6 1-372).
T3 sequence: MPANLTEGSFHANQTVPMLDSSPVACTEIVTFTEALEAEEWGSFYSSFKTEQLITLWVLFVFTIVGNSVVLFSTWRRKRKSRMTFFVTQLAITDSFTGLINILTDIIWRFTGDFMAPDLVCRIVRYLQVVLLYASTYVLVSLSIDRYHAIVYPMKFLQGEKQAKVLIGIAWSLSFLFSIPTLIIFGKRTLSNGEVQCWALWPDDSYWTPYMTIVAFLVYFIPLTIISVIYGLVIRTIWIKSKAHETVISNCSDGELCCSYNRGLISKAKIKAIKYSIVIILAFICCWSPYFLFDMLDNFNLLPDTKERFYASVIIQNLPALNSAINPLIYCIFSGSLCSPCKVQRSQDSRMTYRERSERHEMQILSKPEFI
Nature of the experiment: cell-based or functional assay.

Experiment [4] concerns the target T4, human-derived G protein-coupled receptor protein TGR23-1 (human TGR23-1) (human, UniProt Q6W5P4 1-371).
T4 construct: Expressed in CHO dhfr- cells (pAKKO-TGR23-1)
T4 sequence: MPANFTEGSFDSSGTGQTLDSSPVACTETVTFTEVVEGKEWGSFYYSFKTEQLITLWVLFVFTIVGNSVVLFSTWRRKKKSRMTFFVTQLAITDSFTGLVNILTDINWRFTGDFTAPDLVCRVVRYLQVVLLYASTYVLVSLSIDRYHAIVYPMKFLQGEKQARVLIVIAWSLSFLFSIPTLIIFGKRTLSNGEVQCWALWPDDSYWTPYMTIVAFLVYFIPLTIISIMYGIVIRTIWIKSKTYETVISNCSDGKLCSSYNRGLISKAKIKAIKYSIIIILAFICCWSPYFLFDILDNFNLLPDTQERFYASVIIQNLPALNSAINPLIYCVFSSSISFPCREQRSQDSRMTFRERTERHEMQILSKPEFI
Nature of the experiment: radioligand filter binding on the membrane fraction of TGR23-1 expressing CHO cells. An excerpt:
(§1) The Receptor Binding Assay Using [Nle¹⁰, ¹²⁵I-Tyr¹⁵] human TGR3-2 ligand (1-20) Using using [Nle¹⁰, ¹²⁵I-Tyr¹⁵] human TGR23-2 ligand (1-20) prepared by the method described in Example 26, and a cell membrane fraction prepared from TGR23-2 expressing CHO cells as described in Example 24 and a cell membrane fraction prepared from TGR23-1 expressing CHO cells by the similar method to that described in Example 24 using TGR23-1 expressing CHO cells instead of TGR23-2 expressing CHO cells, a receptor binding assay was carried out as follows.
(§2) Cell membrane fraction prepared from TGR23-1 expressing CHO cells and TGR23-2 expressing CHO cells was diluted to various concentration with assay buffer (20 mM Tris-HCl, 5 mM EDTA, 0.1% BSA, 0.5 mM PMSF, 1 μg/ml Pepstatin, 4 μg/ml E-64, 20 μg/ml Leupeptin, pH7.4), and 200 μl each of the diluent was dispensed into polypropilene test tube (Falcon 2053). In order to determine an amount of maximum binding, 2 μl of DMSO and 2 μl of 10 nM [Nle¹⁰, ¹²⁵I-Tyr¹⁵] human TGR23-2 ligand (1-20) were added to the membrane fraction solution. […] After filtration, a radioactivity remaining on the filter was counted using γ-counter, and an amount of specific binding was estimated by subtracting an amount of non-specific binding from an amount of maximum binding. […]

Experiment [5] addresses T2, rat-derived G protein-coupled receptor …. Nature of the experiment: saturation binding with Scatchard analysis on the membrane fraction of rat TGR23-5 expressing CHO cells; row head 'Binding Constant'; text gives dissociation constant 125±8.36 (pM). The procedure: (§3) The membrane fractions of rat TGR23-1 expressing CHO cells and rat TGR23-5 expressing CHO cells, which were prepared as described above, were suspended in binding buffer (20 mM Tris-HCl (pH7.4), 5 mM EDTA, 0.1% BSA, 0.5 mM PMSF, 0.1 μg/ml of pepstatin, 20 μg/ml of leupeptine and 4 μg/ml of E-64). The concentrtion was adjusted to 10 μg/ml. The solutiion was used as a membrane fraction solution for binding saturation. Total binding of [Nle¹⁰, ¹²⁵I-Tyr¹⁵] human TGR23-2 ligand (1-20), which was prepared by the method described in Example 26, to the membrane fractions, was obtained by the following method.
(§4) To 200 μl of the membrane fraction solution for binding saturation, 2 μl of dimethylsulfoxide (DMSO) and 2 μl of [Nle¹⁰, ¹²⁵I-Tyr¹⁵] human TGR23-2 ligand (1-20) having various concentrations, were added, and then the mixture was incubated at 25° C. for 90 minutes. […] The radioactivity of [Nle¹⁰, ¹²⁵I-Tyr¹⁵] human TGR23-2 ligand (1-20) trapped on the glass filter was measured by counter, and the obtained value was determined as the total binding. […] A specific binding at a given concentration of [Nle¹⁰, ¹²⁵I-Tyr¹⁵] human TGR23-2 ligand (1-20) is calculated by subtracting the non-specific binding from the total binding at the same concentration. […]

Experiment [6] concerns the target T3, rat-derived G protein-coupled receptor …. The experiment in a line: saturation binding with Scatchard analysis on the membrane fraction of rat TGR23-1 expressing CHO cells; row head 'Binding Constant'; text gives dissociation constant 141±8.71 (pM). The procedure:
as §3, §4

In experiment [7] the target is T1, human-derived G protein-coupled …. Nature of the experiment: radioligand filter binding on the membrane fraction of TGR23-2 expressing CHO cells.
Excerpt: as §1, §2

For the molecule SFRNGVGSGAKKTSFRRAKQ [mouse TGR23-2 ligand (1-20)], the IC50 in experiment [1] stood at 24.5 pM.

SFRNGVGTGMKKTSFQRAKS (also called human TGR23 ligand (1-20)) [human TGR23-2 ligand (1-20)]: the IC50 in experiment [1] came out at 105 pM.

For SFRNGVGSGVKKTSFRRA [rat TGR23-2 ligand (1-18)], the IC50 in experiment [1] came to 92.8 pM. Further, the “Intracellular Ca increasing activity (EC50)” value in experiment [2] was 14000 pM; in experiment [3], 190 pM.

SFRNGVGTG[Nle]KKTSY(125I)QRAKS [[Nle^10, ^125I-Tyr^15] human TGR23-2 ligand (1-20)]: the binding result in experiment [4] and in experiment [7] was “binds” each time. For the same molecule, the Kd stood at 125 pM in experiment [5] and 141 pM in experiment [6].
